We go through 6 molecules from US20220118080A1 (MAYO FOUNDATION FOR MEDICAL EDUCATION AND RESEARCH, published 2022).

Like-named read-outs stand apart in the source and are kept apart here.

First the molecules themselves.
B1: CD46-Fc (Fc fusion)
chain: CEEPPTFEAMELIGKPKPYYEIGERVDYKCKKGYFYIPPLATHTICDRNHTWLPVSDDACYRETCPYIRDPLNGQAVPANGTYEFGYQMHFICNEGYYLIGEEILYCELKGSVAIWSGKPPICEKVLCTPPPKIKNGKHTFSEVEVFEYLDAVTYSCDPAPGPDPFSLIGESTIYCGDNSVWSRAAPECKVVKCRFPVVENGKQISGFGKKFYYKATVMFECDKGFYLDGSDTIVCDSNSTWDPPVPKCLKVLPPSSTKPPALSHSVSTSSTTKSPASSASGPRPTYKPPVSNY
notes: range 35-328
B2: recombinant soluble MeV-H Δ8 (other)
chain: RLHRAAIYTAEIHKSLSTNLDVTNSIEHQVKDVLTPLFKIIGDEVGLRTPQRFTDLVKFISDKIKFLNPDREYDFRDLTWCINPPERIKLNYDQYCADVAAEELMNALVNSTLLETRTTNQFLAVSKGNCPGPTTIRGQFSNMSLSLLDLYLSRGYNVSSIVTMTSQGMYGGTYLVGKPDLNSKGSELSQPSMYRVFEVGVIRNPGLGAPVFHMTNYFEQPISKDLSNCMVALGELKLAALCHRGDSITIPCRGSGKGVSFQLVKLGVWKSPTDMHSWVPLSTDDPVIDRLYLSSHRGVITDNQANWAVPTTRTDDKLQKETCFQQACKGKIQALCENLEWAPLKDSRIPSYGVLSVNLSLAAEPKIKIASGFGPLITHGSGMDLYKSNHNNVYWLTIPPMKNLALGVINTLKWIPRLKVSPYLFTVPIEEADEDCRAPTYLPAEVTGDVKLSSNLVILPGQDLQYVLATYDTSGVEHAVVYYVYSPGGSFSYVYPFRLPIKGTPIELQVECFTWAQRLWCRHFCVLADSESGGHLTHSGMVGMEVSCTVNREDEANRR

Experiment [1] addresses recombinant soluble MeV-H A (vaccine strain) (measles virus).
For experiment [2], the target named is B2. Briefly: ELISA, receptor-Fc titrated on plastic-bound MeV-H.
The target in experiment [3] is B1. As to the kind of experiment: ELISA, receptor-Fc titrated on plastic-bound MeV-H; one-site fit, apparent Kd (half-saturating concentration).
Experiment [4] concerns the target T1, SLAM-Fc (UniProt Q13291 21-237).
T1 sequence: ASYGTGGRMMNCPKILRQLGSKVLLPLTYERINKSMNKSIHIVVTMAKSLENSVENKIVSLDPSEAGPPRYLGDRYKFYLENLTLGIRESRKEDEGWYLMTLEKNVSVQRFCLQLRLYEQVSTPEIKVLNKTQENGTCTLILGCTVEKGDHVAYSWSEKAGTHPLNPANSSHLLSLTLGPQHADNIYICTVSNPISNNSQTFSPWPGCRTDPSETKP
As to the kind of experiment: ELISA, receptor-Fc on plastic-bound MeV-H.

For experiment [5], the target named is recombinant soluble MeV-H A (vaccine strain) (measles virus). As to the kind of experiment: ELISA, receptor-Fc titrated on plastic-bound MeV-H; one-site fit, apparent Kd.
Experiment [6] shares this target. Briefly: ELISA, receptor-Fc titrated on plastic-bound MeV-H; one-site fit.
Experiment [7] deals with T1, SLAM-Fc. Briefly: ELISA, receptor-Fc titrated on plastic-bound MeV-H; one-site fit, apparent Kd.

Regarding “nectin-4-Fc (from UniProt Q96NY8 32-349) (Fc fusion)”, the Bmax in experiment [1] came to 1.56.

For the molecule “CD46-Fc (from UniProt P15529 35-328) (Fc fusion)”, the Kd in experiment [1] was determined as 819 µM.

In the case of B1, the “fold better binding than MeV-H A and H1” value in experiment [2] was roughly 4000 fold.

B2: in experiment [3], the Kd is 0.00019 µM. Also, the binding result in experiment [4] is “no binding”.

B3: SLAM-Fc (Fc fusion)
chain: ASYGTGGRMMNCPKILRQLGSKVLLPLTYERINKSMNKSIHIVVTMAKSLENSVENKIVSLDPSEAGPPRYLGDRYKFYLENLTLGIRESRKEDEGWYLMTLEKNVSVQRFCLQLRLYEQVSTPEIKVLNKTQENGTCTLILGCTVEKGDHVAYSWSEKAGTHPLNPANSSHLLSLTLGPQHADNIYICTVSNPISNNSQTFSPWPGCRTDPSETKP
With B3, the Kd in experiment [5] was determined as 2.68 µM. Besides, in experiment [6], the Bmax was 2.09.

B4: recombinant soluble MeV-H H1 (other)
chain: RLHRAAIYTAEIHKSLSTNLDVTNSIEHQVKDVLTPLFKIIGDEVGLRTPQRFTDLVKFISDKIKFLNPDREYDFRDLTWCINPPERIKLNYDQYCADVAAEELMNALVNSTLLETRTTNQFLAVSKGNCSGPTTIRGQFSNMSLSLLDLYLSRGYNVSSIVTMTSQGMYGGTYLVEKPNLNSKGSELSQLSMYRVFEVGVIRNPGLGAPVFHMTNYFEQPISKDLSNCMVALGELKLAALCHGGDSITIPYQGSGKGVSFQLVKLGVWKSPTDMHSWVPLSTDDPVIDRLYLSSHRGVITDNQANWAVPTTRTDDKLRMETCFQQACKGKIQALCENLEWAPLKDSRIPSYGVLSVDLSLAAEPKIKIASGFGPLITHGSGMDLYKSNHNNVYWLTIPPMKNLALGVINTLEWIPRLKVSPNLFTVPIKEAGEDCHAPTYLPAEVDGDVKLSSNLVILPGQDLQYVLATYDTSRVEHAVVYYVYSPSRSFSYFYPFRLPIKGTPIELQVECFTWAQRLWCRHFCVLADSESGGHLTHSGMVGMEVSCTVNREDEANRR
Consider B4, for which the Kd in experiment [7] is 10.4 µM.
